Measured values published in patent US20230303698A1 (published 2023).

T1: cynomolgus monkey 4-1BB (cynomolgus monkey)
T1 chain: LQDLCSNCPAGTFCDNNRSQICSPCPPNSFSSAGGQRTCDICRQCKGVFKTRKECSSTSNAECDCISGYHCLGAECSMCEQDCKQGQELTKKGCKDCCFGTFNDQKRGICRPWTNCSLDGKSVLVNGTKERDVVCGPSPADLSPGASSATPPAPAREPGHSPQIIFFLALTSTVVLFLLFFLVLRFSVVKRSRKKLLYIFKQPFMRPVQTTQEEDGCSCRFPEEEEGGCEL

B1: PR003551 (bispecific antibody)
light: DIQMTQSPSTLSASVGDRVTVTCRASQSIYIWLAWYQQKPGKAPNLLIYKASSLETGVPSRFSGSGSGTEFTLTISSLQPDDFATYYCQQYYGSSRTFGQGTKVEIKRTVAAPSVFIFPPSDEQLKSGTASVVCLLNNFYPREAKVQWKVDNALQSGNSQESVTEQDSKDSTYSLSSTLTLSKADYEKHKVYACEVTHQGLSSPVTKSFNRGEC
heavy: EVQLVESGGGLVQPGGSLRLSCAASGFTFSSYWMSWVRQAPGKGLEWVANIKQEGSEKYYVDSVKGRFTISRDNAKNSLYLQMNSLRAEDTAVYYCARDRAVAGAFDIWGQGTMVTVSSASTKGPSVFPLAPSSKSTSGGTAALGCLVKDYFPEPVTVSWNSGALTSGVHTFPAVLQSSGLYSLSSVVTVPSSSLGTQTYICNVNHKPSNTKVDKKVEPKSCDKTHTCPPCPAPEAAGGPSVFLFPPKPKDTLMISRTPEVTCVVVDVSHEDPEVKFNWYVDGVEVHNAKTKPREEQYNSTYRVVSVLTVLHQDWLNGKEYKCKVSNKALGAPIEKTISKAKGQPREPQVYTLPPSREEMTKNQVSLTCLVKGFYPSDIAVEWESNGQPENNYKTTPPVLDSDGSFFLYSKLTVDKSRWQQGNVFSCSVMHEALHNHYTQKSLSLSPGEPKSSDKTHTPPPPPRTEVQLLESGGGLVQPGGSLRLSCAASGFIFSNFAMTWVRQPPEKGLKWVSSINGSGFNTYYTDSVKGRFTISRDNSRNTLYLQMNRLTAEDTAVYFCAKEGSSETDDHYYNVDVWGQGTTVTVSS
B2: PR003549 (bispecific antibody)
light: DIQMTQSPSTLSASVGDRVTVTCRASQSIYIWLAWYQQKPGKAPNLLIYKASSLETGVPSRFSGSGSGTEFTLTISSLQPDDFATYYCQQYYGSSRTFGQGTKVEIKRTVAAPSVFIFPPSDEQLKSGTASVVCLLNNFYPREAKVQWKVDNALQSGNSQESVTEQDSKDSTYSLSSTLTLSKADYEKHKVYACEVTHQGLSSPVTKSFNRGEC
heavy: EVQLVESGGGLVQPGGSLRLSCAASGFTFSSYWMSWVRQAPGKGLEWVANIKQEGSEKYYVDSVKGRFTISRDNAKNSLYLQMNSLRAEDTAVYYCARDRAVAGAFDIWGQGTMVTVSSASTKGPSVFPLAPSSKSTSGGTAALGCLVKDYFPEPVTVSWNSGALTSGVHTFPAVLQSSGLYSLSSVVTVPSSSLGTQTYICNVNHKPSNTKVDKKVEPKSCDKTHTCPPCPAPEAAGGPSVFLFPPKPKDTLMISRTPEVTCVVVDVSHEDPEVKFNWYVDGVEVHNAKTKPREEQYNSTYRVVSVLTVLHQDWLNGKEYKCKVSNKALGAPIEKTISKAKGQPREPQVYTLPPSREEMTKNQVSLTCLVKGFYPSDIAVEWESNGQPENNYKTTPPVLDSDGSFFLYSKLTVDKSRWQQGNVFSCSVMHEALHNHYTQKSLSLSPGEPKSSDKTHTPPPPPRTEVQLLESGGGLVQLGGSLRLSCAASGFTFSRYAMTWVRQAPEKGLEWVSSISGSGDDTYYGDSVKGRFTISRDNSQNTVYLQMNSLRAEDTAVYFCAKEKAGTTGDYYYNVDVWGQGTTVTVSS
B3: PR007164 (bispecific antibody)
chain 1: EVQLVESGGGLVQPGGSLRLSCAASGFTFSSYWMSWVRQAPGKGLEWVANIKQEGSEKYYVDSVKGRFTISRDNAKNSLYLQMNSLRAEDTAVYYCARDRAVAGAFDIWGQGTMVTVSSASTKGPSVFPLAPSSKSTSGGTAALGCLVKDYFPEPVTVSWNSGALTSGVHTFPAVLQSSGLYSLSSVVTVPSSSLGTQTYICNVNHKPSNTKVDKKVEPKSC
chain 2: not shown
B4: PR007163 (bispecific antibody)
light: DIQMTQSPSTLSASVGDRVTVTCRASQSIYIWLAWYQQKPGKAPNLLIYKASSLETGVPSRFSGSGSGTEFTLTISSLQPDDFATYYCQQYYGSSRTFGQGTKVEIKRTVAAPSVFIFPPSDEQLKSGTASVVCLLNNFYPREAKVQWKVDNALQSGNSQESVTEQDSKDSTYSLSSTLTLSKADYEKHKVYACEVTHQGLSSPVTKSFNRGEC
heavy: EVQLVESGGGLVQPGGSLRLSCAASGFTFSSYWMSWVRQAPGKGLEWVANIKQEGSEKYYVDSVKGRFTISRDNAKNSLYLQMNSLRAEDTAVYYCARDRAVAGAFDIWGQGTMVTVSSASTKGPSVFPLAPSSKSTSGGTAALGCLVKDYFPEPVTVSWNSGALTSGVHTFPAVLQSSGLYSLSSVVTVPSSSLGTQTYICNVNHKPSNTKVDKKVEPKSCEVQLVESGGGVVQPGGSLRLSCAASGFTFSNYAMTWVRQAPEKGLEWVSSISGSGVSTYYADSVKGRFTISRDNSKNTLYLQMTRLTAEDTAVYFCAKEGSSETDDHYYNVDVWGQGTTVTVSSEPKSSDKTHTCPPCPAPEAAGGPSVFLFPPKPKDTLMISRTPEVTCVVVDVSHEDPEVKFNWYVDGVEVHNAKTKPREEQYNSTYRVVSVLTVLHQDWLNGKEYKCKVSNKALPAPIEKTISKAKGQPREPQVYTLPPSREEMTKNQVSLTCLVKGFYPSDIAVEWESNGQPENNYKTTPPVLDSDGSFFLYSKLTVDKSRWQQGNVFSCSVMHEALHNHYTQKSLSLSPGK
B5: PR004270 (bispecific antibody)
chain 1: EVQLVESGGGLVQPGGSLRLSCAASGFTFSSYWMSWVRQAPGKGLEWVANIKQEGSEKYYVDSVKGRFTISRDNAKNSLYLQMNSLRAEDTAVYYCARDRAVAGAFDIWGQGTMVTVSSASTKGPSVFPLAPSSKSTSGGTAALGCLVKDYFPEPVTVSWNSGALTSGVHTFPAVLQSSGLYSLSSVVTVPSSSLGTQTYICNVNHKPSNTKVDKKVEPKSC
chain 2: not shown
B6: PR003550 (bispecific antibody)
light: DIQMTQSPSTLSASVGDRVTVTCRASQSIYIWLAWYQQKPGKAPNLLIYKASSLETGVPSRFSGSGSGTEFTLTISSLQPDDFATYYCQQYYGSSRTFGQGTKVEIKRTVAAPSVFIFPPSDEQLKSGTASVVCLLNNFYPREAKVQWKVDNALQSGNSQESVTEQDSKDSTYSLSSTLTLSKADYEKHKVYACEVTHQGLSSPVTKSFNRGEC
heavy: EVQLVESGGGLVQPGGSLRLSCAASGFTFSSYWMSWVRQAPGKGLEWVANIKQEGSEKYYVDSVKGRFTISRDNAKNSLYLQMNSLRAEDTAVYYCARDRAVAGAFDIWGQGTMVTVSSASTKGPSVFPLAPSSKSTSGGTAALGCLVKDYFPEPVTVSWNSGALTSGVHTFPAVLQSSGLYSLSSVVTVPSSSLGTQTYICNVNHKPSNTKVDKKVEPKSCDKTHTCPPCPAPEAAGGPSVFLFPPKPKDTLMISRTPEVTCVVVDVSHEDPEVKFNWYVDGVEVHNAKTKPREEQYNSTYRVVSVLTVLHQDWLNGKEYKCKVSNKALGAPIEKTISKAKGQPREPQVYTLPPSREEMTKNQVSLTCLVKGFYPSDIAVEWESNGQPENNYKTTPPVLDSDGSFFLYSKLTVDKSRWQQGNVFSCSVMHEALHNHYTQKSLSLSPGEPKSSDKTHTPPPPPRTEVQLVESGGGVVQPGGSLRLSCAASGFTFSNYAMTWVRQAPEKGLEWVSSISGSGVSTYYADSVKGRFTISRDNSKNTLYLQMTRLTAEDTAVYFCAKEGSSETDDHYYNVDVWGQGTTVTVSS
B7: PR001758, anti-4-1BB heavy-chain antibody 1016P0010B11 (antibody, V domains shown)
VH: EVQLLESGGGLVQLGGSLRLSCAASGFTFSRYAMTWVRQAPEKGLEWVSSISGSGDDTYYGDSVKGRFTISRDNSQNTVYLQMNSLRAEDTAVYFCAKEKAGTTGDYYYNVDVWGQGTTVTVSS
B8: Anti-4-1BB monoclonal antibody utomilumab analog (antibody, V domains shown)
VH: EVQLVQSGAEVKKPGESLRISCKGSGYSFSTYWISWVRQMPGKGLEWMGKIYPGDSYTNYSPSFQGQVTISADKSISTAYLQWSSLKASDTAMYYCARGYGIFDYWGQGTLVTVSS
VL: SYELTQPPSVSVSPGQTASITCSGDNIGDQYAHWYQQKPGQSPVLVIYQDKNRPSGIPERFSGSNSGNTATLTISGTQAMDEADYYCATYTGFGSLAVFGGGTKLTVLG
B9: PR003564 (bispecific antibody)
light: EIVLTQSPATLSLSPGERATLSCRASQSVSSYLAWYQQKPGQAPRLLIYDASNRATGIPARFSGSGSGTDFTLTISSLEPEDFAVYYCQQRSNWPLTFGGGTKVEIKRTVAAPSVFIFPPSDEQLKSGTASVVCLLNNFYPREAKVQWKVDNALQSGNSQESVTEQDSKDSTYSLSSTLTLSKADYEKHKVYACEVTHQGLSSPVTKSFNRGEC
heavy: EVQLLESGGGLVQPGGSLRLSCAASGFTFSSFVMSWVRQAPGKGLEWVSTISGSGRSTYYADSVKGRFTISRDNSKNTLHLQMNSLRAEDTAVYYCAKDAAAAGTKFDYWGQGTLVTVSSASTKGPSVFPLAPSSKSTSGGTAALGCLVKDYFPEPVTVSWNSGALTSGVHTFPAVLQSSGLYSLSSVVTVPSSSLGTQTYICNVNHKPSNTKVDKKVEPKSCDKTHTCPPCPAPEAAGGPSVFLFPPKPKDTLMISRTPEVTCVVVDVSHEDPEVKFNWYVDGVEVHNAKTKPREEQYNSTYRVVSVLTVLHQDWLNGKEYKCKVSNKALGAPIEKTISKAKGQPREPQVYTLPPSREEMTKNQVSLTCLVKGFYPSDIAVEWESNGQPENNYKTTPPVLDSDGSFFLYSKLTVDKSRWQQGNVFSCSVMHEALHNHYTQKSLSLSPGEPKSSDKTHTPPPPPRTEVQLLESGGGLVQPGGSLRLSCAASGFIFSNFAMTWVRQPPEKGLKWVSSINGSGFNTYYTDSVKGRFTISRDNSRNTLYLQMNRLTAEDTAVYFCAKEGSSETDDHYYNVDVWGQGTTVTVSS
B10: PR003562 (bispecific antibody)
light: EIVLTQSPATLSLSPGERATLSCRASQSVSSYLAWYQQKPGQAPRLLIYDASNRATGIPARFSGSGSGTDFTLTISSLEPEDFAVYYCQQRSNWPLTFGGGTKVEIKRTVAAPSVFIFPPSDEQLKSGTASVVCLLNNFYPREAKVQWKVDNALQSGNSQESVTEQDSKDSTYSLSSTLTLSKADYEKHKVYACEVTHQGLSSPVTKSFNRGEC
heavy: EVQLLESGGGLVQPGGSLRLSCAASGFTFSSFVMSWVRQAPGKGLEWVSTISGSGRSTYYADSVKGRFTISRDNSKNTLHLQMNSLRAEDTAVYYCAKDAAAAGTKFDYWGQGTLVTVSSASTKGPSVFPLAPSSKSTSGGTAALGCLVKDYFPEPVTVSWNSGALTSGVHTFPAVLQSSGLYSLSSVVTVPSSSLGTQTYICNVNHKPSNTKVDKKVEPKSCDKTHTCPPCPAPEAAGGPSVFLFPPKPKDTLMISRTPEVTCVVVDVSHEDPEVKFNWYVDGVEVHNAKTKPREEQYNSTYRVVSVLTVLHQDWLNGKEYKCKVSNKALGAPIEKTISKAKGQPREPQVYTLPPSREEMTKNQVSLTCLVKGFYPSDIAVEWESNGQPENNYKTTPPVLDSDGSFFLYSKLTVDKSRWQQGNVFSCSVMHEALHNHYTQKSLSLSPGEPKSSDKTHTPPPPPRTEVQLLESGGGLVQLGGSLRLSCAASGFTFSRYAMTWVRQAPEKGLEWVSSISGSGDDTYYGDSVKGRFTISRDNSQNTVYLQMNSLRAEDTAVYFCAKEKAGTTGDYYYNVDVWGQGTTVTVSS
B11: PR003563 (bispecific antibody)
light: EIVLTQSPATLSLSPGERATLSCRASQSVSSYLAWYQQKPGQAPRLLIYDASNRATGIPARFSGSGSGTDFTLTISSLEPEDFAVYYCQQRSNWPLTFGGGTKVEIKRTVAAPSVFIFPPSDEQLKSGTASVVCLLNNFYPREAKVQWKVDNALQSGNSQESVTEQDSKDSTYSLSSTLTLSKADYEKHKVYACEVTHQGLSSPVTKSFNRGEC
heavy: EVQLLESGGGLVQPGGSLRLSCAASGFTFSSFVMSWVRQAPGKGLEWVSTISGSGRSTYYADSVKGRFTISRDNSKNTLHLQMNSLRAEDTAVYYCAKDAAAAGTKFDYWGQGTLVTVSSASTKGPSVFPLAPSSKSTSGGTAALGCLVKDYFPEPVTVSWNSGALTSGVHTFPAVLQSSGLYSLSSVVTVPSSSLGTQTYICNVNHKPSNTKVDKKVEPKSCDKTHTCPPCPAPEAAGGPSVFLFPPKPKDTLMISRTPEVTCVVVDVSHEDPEVKFNWYVDGVEVHNAKTKPREEQYNSTYRVVSVLTVLHQDWLNGKEYKCKVSNKALGAPIEKTISKAKGQPREPQVYTLPPSREEMTKNQVSLTCLVKGFYPSDIAVEWESNGQPENNYKTTPPVLDSDGSFFLYSKLTVDKSRWQQGNVFSCSVMHEALHNHYTQKSLSLSPGEPKSSDKTHTPPPPPRTEVQLVESGGGVVQPGGSLRLSCAASGFTFSNYAMTWVRQAPEKGLEWVSSISGSGVSTYYADSVKGRFTISRDNSKNTLYLQMTRLTAEDTAVYFCAKEGSSETDDHYYNVDVWGQGTTVTVSS

Each binder was assayed against T2, human 4-1BB (human, UniProt Q07011 24-255) (assay: FACS).

First: B1
Second: B2
The EC50 of the first is 1.7-fold higher: 3.15 nM for the first, 1.9 nM for the second. The second is the more potent here.

The binders below were run against human PD-L1 (human, UniProt Q9NZQ7 19-290) (assay: FACS).
Chain of human PD-L1 (Q9NZQ7 19-290): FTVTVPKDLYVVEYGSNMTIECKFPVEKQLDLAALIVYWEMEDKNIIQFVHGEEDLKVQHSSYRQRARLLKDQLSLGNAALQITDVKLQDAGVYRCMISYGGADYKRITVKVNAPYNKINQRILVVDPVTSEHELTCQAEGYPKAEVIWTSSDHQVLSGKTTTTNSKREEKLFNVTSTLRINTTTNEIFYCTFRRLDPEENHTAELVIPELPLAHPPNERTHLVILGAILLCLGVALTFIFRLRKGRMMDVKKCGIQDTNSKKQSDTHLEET

B1 and B3 are within 1.5-fold of each other in EC50: 1.29 nM for the first, 1.93 nM for the second.

B2 and B4 are within 1.5-fold of each other in EC50: 1.56 nM for the first, 2.26 nM for the second.

B5 and B6 are within 1.5-fold of each other in EC50: 0.963 nM for the first, 1.11 nM for the second.

Target: T1, cynomolgus monkey 4-1BB
Assay: FACS

B7 and B8 are within 1.5-fold of each other in EC50: 0.575 nM for the first, 0.485 nM for the second.

Target: T2, human 4-1BB
Assay: FACS
Remark: another data set of the same source

B9 and B10 are within 1.5-fold of each other in EC50: 2.78 nM for the first, 1.87 nM for the second.

In the case of B11, the EC50 is reported as 1.65 nM.
